{
  "source": "patent US20220047631A1",
  "about": "(UNIVERSITY OF CHICAGO, published 2022)",
  "binders": {"B1": {"name": "237 monoclonal antibody (antibody, V domains shown)", "VH": "QVQLQQSGGGLVQPGGSMKIFCAASGFTFSDAWMDWVRQSPEKGLEWVAEIRNKANNHETYYAESVKGRFTITRDDSKSRMSLQMNSLRAEDTGIYYCSGGKVRNAYWGQGTTVTVSS", "VL": "DIQLTQSPLSLPVSLGDQASISCRSSQSLVHSNGNTYLHWYLQKPGQSPKLLIYKVSNRFSGVPDRFSGSGSGTDFTLKISSVEAEDLGVYFCSQSTHVPTFGGGTKLEIK", "notes": "Murine monoclonal IgG"}, "B2": {"name": "237-LGQ-CAR on transduced C57BL/6 mouse T cells (other)", "scFv": "DIQLTQSPLSLPVSLGDQASISCRSSQSLVHSNGNTYLHWYLQKPGQSPKLLIYKVSNRFSGVPDRFSGSGSGTDFTLKISSVEAEDLGVYFCSQSLGQPTFGGGTKLEIKGGGGSGGGGSGGGGSQVQLQQSGGGLVQPGGSMKIFCAASGFTFSDAWMDWVRQSPEKGLEWVAEIRNKANNHETYYAESVKGRFTITRDDSKSRMSLQMNSLRAEDTGIYYCSGGKVRNAYWGQGTTVTVSS", "notes": "also called CAR with dual specificity (LGQ); not shown: hinge, CD28 and CD3zeta parts of the CAR"}, "B3": {"name": "soluble 237 scFv monomer (biotinylated) (scFv)", "scFv": "B2 scFv with L97T, G98H, Q99V", "modifications": "biotin on the C-terminal Avitag", "notes": "also called monomeric scFv; b237; not shown: N-terminal 6xHis tag; C-terminal Avitag"}, "B4": {"name": "T-WA (wt: STHV) (scFv)", "scFv (VL-linker-VH)": "B2 scFv with S96T, L97T, G98W, Q99A", "notes": "isolated after sort 4 with Tn-OTS8p; also called clones O4-1, O4-2, O4-9"}, "B5": {"name": "237-TNGK-CAR on transduced C57BL/6 mouse T cells (other)", "scFv": "B2 scFv with S96T, L97N, Q99K", "notes": "also called CAR with dual specificity (TNGK); not shown: hinge, CD28 and CD3zeta parts of the CAR"}, "B6": {"name": "yeast-displayed 237 scFv TNGK mutant (scFv, not shown: large carriers; small tags and cut ends)", "scFv": "B2 scFv with S96T, L97N, Q99K"}, "B7": {"name": "yeast-displayed 237 scFv LGQ mutant (scFv)", "scFv": "B2 scFv", "notes": "not shown: yeast display carriers: N-terminal Aga2 and HA tag, C-terminal c-myc tag"}, "B8": {"name": "yeast-displayed 237 scFv WE mutant (scFv)", "scFv": "B2 scFv with L97T, G98W, Q99E", "notes": "as for B7"}, "B9": {"name": "-VWE (wt: STHV) (scFv)", "scFv (VL-linker-VH)": "B2 scFv with L97V, G98W, Q99E", "notes": "isolated after sort 5 with Tn-OTS8p; also called clone O5-8"}, "B10": {"name": "--WG (wt: STHV) (scFv)", "scFv (VL-linker-VH)": "B2 scFv with L97T, G98W, Q99G", "notes": "isolated after sort 4 with Tn-OTS8p; also called clone O4-3"}, "B11": {"name": "MLV (wt CDRL2: KVS) (scFv)", "scFv (VL-linker-VH)": "B2 scFv with K55M, V56L, S57V, L97T, G98H, Q99V"}},
  "key": {"[1]": {"target": "T1, GTK", "T1 construct": "truncation series from GTKAAAA; also called Tn-peptide GTK, immobilized (C-terminal truncation)", "T1 peptide": "Biotin-APLVPTQRERGT(GalNAc)K", "assay": "ELISA; x axis = coating concentration of the peptide; 237Ab fixed at 10 µg/ml [left]"}, "[2]": {"target": "T2, GTKA", "T2 construct": "truncation series from GTKAAAA; also called Tn-peptide GTKA, immobilized (C-terminal truncation)", "T2 peptide": "Biotin-APLVPTQRERGT(GalNAc)KA", "assay": "ELISA; x axis = coating concentration of the peptide; 237Ab fixed at 10 µg/ml [left]"}, "[3]": {"target": "T3, Tn-OTS8 peptide ERGT(GalNAc)KPPLEELSGK-biotin, monomer (murine)", "T3 construct": "also called glycosylated OTS-8 peptide (biotinylated)", "T3 peptide": "ERGT(GalNAc)KPPLEELSGK(Biotin)", "assay": "flow cytometry of CAR-transduced mouse T cells with biotinylated peptide"}, "[4]": {"target": "T4, Tn-OTS8 peptide KAPLVPTQRERGT(GalNAc)KPPLEELSTSATSDHDH (murine, GalNAc (Tn) on the Thr of ...RERGT(GalNAc)KPP...)", "T4 construct": "Coated on ELISA plates at 2.5 or 5 µg/ml; also called OTS8p with Tn", "T4 peptide": "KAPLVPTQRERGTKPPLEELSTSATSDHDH", "assay": "ELISA, peptide coated at 2.5 or 5 µg/ml, biotinylated scFv, streptavidin-HRP"}, "[5]": {"target": "T3, Tn-OTS8 peptide …", "assay": "flow cytometry of yeast-displayed clone with 1 or 10 nM Tn-OTS8 peptide", "experimental": "FIG. 20. […] 10 clones were isolated from Tn-OTS8 peptide-sorted post-sort-4 and post-sort-5 populations. Each clone was stained with 1 or 10 nM Tn-OTS8 peptide and analyzed by flow cytometry. The mean fluorescence units (MFUs) of each clone is plotted on Y-axis. […] In addition, plasmid DNA was isolated from each clone to determine the kind of mutation(s), and frequency of mutation(s) (n). The sequence of wild-type (wt) and mutated residues is shown in black and maroon, respectively."}, "[6]": {"target": "T3, Tn-OTS8 peptide …", "assay": "Table 3, column 'Tn-linked antigen' recognized by the scFv"}, "[7]": {"target": "T3, Tn-OTS8 peptide …", "assay": "dissociation on yeast: 30 nM biotinylated Tn-OTS8 peptide, wash, chase with 100 nM non-biotinylated peptide; sheet adds: 30-fold slower than 237mAb:OTS8p [B]", "experimental": "(§1) FIG. 21. […] (B) To determine their off-rates, each mutant was stained with 30 nM biotinylated Tn-OTS8 peptide. After washing, the mutants were stained with 100 nM Tn-OTS8 peptide (not biotinylated). The decrease in binding to biotinylated Tn-OTS8p by each mutant was measured over a period of 4 hours, to calculate approximate half-lives (t_{1/2}) and off-rates (koff). […] See Brooks et al., Proc. Natl. Acad. Sci. (USA) 107(22):10056-10061 (2010)."}, "[8]": {"target": "T3, Tn-OTS8 peptide …", "assay": "yeast display, 30 nM biotinylated peptide chased with 100 nM unbiotinylated peptide over 4 hours", "experimental": "as §1"}, "[9]": {"target": "T3, Tn-OTS8 peptide …", "assay": "yeast display titration compared with a literature value"}, "[10]": {"target": "T3, Tn-OTS8 peptide …", "assay": "flow cytometry titration of the yeast-displayed mutant with biotinylated OTS8p, 0.1 to 100 nM [A]"}, "[11]": {"target": "T3, Tn-OTS8 peptide …", "assay": "dissociation on yeast: 30 nM biotinylated Tn-OTS8 peptide, wash, chase with 100 nM non-biotinylated peptide; % binding over 4 hours [B]", "experimental": "as §1"}, "[12]": {"target": "T3, Tn-OTS8 peptide …", "assay": "yeast display, flow cytometry titration with peptide"}, "[13]": {"target": "T3, Tn-OTS8 peptide …", "assay": "yeast display dissociation compared with a literature value", "experimental": "as §1"}, "[14]": {"target": "T5, Tn-OTS8 peptide tetramer (murine, UniProt P22629 37-163 (Streptomyces avidinii entry), limits assumed, PE label; GalNAc (Tn) on Thr 4; C-terminal Lys-biotin)", "T5 construct": "How the tetramer was made is not spelled out; streptavidin-PE is the reagent named with it; also called Tn-OTS8p tetramer; tetramers of glycosylated OTS-8 peptide", "T5 sequence (P22629 37-163 limits assumed)": "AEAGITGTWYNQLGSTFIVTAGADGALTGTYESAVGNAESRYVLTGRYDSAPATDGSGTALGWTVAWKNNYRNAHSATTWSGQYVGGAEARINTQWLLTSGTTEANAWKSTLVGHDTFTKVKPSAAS", "assay": "flow cytometry of yeast-displayed clone with 10 nM OTS8p tetramer [B]"}},
  "note": "Residue numbers refer to the chain shown, from its start. Where no end group is shown, it is not given here. The star is where a group is joined. GalNAc = N-acetyl galactosamine (O-linked to Thr, Tn antigen); Biotin = O=C1N[C@H]2[C@H](CS[C@H]2CCCCC(=O)*)N1",
  "data": [
    {"binder": "B1", "values": [
      {"measurement": "binding result", "setting": "[1]", "value": "no binding (tested: 1000 nM peptide for coating)"},
      {"measurement": "binding result", "setting": "[2]", "value": "no binding (tested: 1000 nM peptide for coating)"}
    ]},
    {"binder": "B2", "values": [
      {"measurement": "binding result", "setting": "[3]", "value": "binds"}
    ]},
    {"binder": "B3", "values": [
      {"measurement": "Kd", "setting": "[4]", "value": 5, "unit": "nM"}
    ]},
    {"binder": "B4", "values": [
      {"measurement": "binding result", "setting": "[5]", "value": "binds"}
    ]},
    {"binder": "B5", "values": [
      {"measurement": "binding result", "setting": "[3]", "value": "binds"}
    ]},
    {"binder": "B6", "values": [
      {"measurement": "binding result", "setting": "[6]", "value": "binds"}
    ]},
    {"binder": "B7", "values": [
      {"measurement": "binding result", "setting": "[6]", "value": "binds"}
    ]},
    {"binder": "B8", "values": [
      {"measurement": "koff", "setting": "[7]", "value": 0.00042, "unit": "s⁻¹"},
      {"measurement": "half-life (t1/2)", "setting": "[8]", "value": "~30", "unit": "min"},
      {"measurement": "fold higher affinity than the 237 IgG Fab domain (literature SPR)", "setting": "[9]", "value": "~30", "unit": "fold"},
      {"measurement": "Kd", "setting": "[10]", "value": 4.3, "unit": "nM"},
      {"measurement": "t1/2", "setting": "[11]", "value": 27, "unit": "min"},
      {"measurement": "Kd", "setting": "[12]", "value": "~5", "unit": "nM"},
      {"measurement": "fold slower off-rate than the 237 monoclonal antibody Fab with OTS8 peptide (literature)", "setting": "[13]", "value": 30, "unit": "fold"}
    ]},
    {"binder": "B9", "values": [
      {"measurement": "binding result", "setting": "[5]", "value": "binds"}
    ]},
    {"binder": "B10", "values": [
      {"measurement": "binding result", "setting": "[5]", "value": "binds"}
    ]},
    {"binder": "B11", "values": [
      {"measurement": "binding result", "setting": "[14]", "value": "no binding (tested: 10 nM)"}
    ]}
  ]
}
